Tests used:
[1] = molecular target: T1, Flag-tagged full-length p300 (baculovirus expressed, on M2-anti-flag antibody agarose) (UniProt Q09472 2-2414, limits assumed); assay: binding properties of the STRAP mutant derivative
T1 construct: mature; also called flag-p300; flag-tagged wild-type p300; not shown: Flag tag

[2] = molecular target: T2, his-tagged wild-type JMY (pET-JMY, bacterially expressed) (UniProt Q9QXM1 1-983); assay: binding properties of the STRAP mutant derivative
T2 construct: also called His-JMY; purified recombinant JMY; not shown: His tag from pET28a

[3] = molecular target: T2, his-tagged wild-type JMY (pET-JMY, …); assay: in vitro translated STRAP derivative binding to his-tagged wild-type JMY
[4] = molecular target: p300 (pCMV-p300, expressed in transfected cells) (UniProt Q09472 1-2414); assay: co-immunoprecipitation from STRAP expressing U2OS cells treated with etoposide, against untreated cells
[5] = molecular target: T1, Flag-tagged full-length p300 …; assay: in vitro translated STRAP derivative binding to flag-tagged wild-type p300 on anti-flag agarose
[6] = molecular target: T1, Flag-tagged full-length p300 …; assay: biochemical binding assay with STRAP derivatives (summary in FIG. 7)
[7] = molecular target: T2, his-tagged wild-type JMY (pET-JMY, …); assay: as above
[8] = molecular target: T2, his-tagged wild-type JMY (pET-JMY, …); assay: summary of the biochemical binding assays
[9] = molecular target: JMY1-119 (pCMV-HA-JMY1-119, in vitro translated) (UniProt Q9QXM1 1-119); assay: in vitro translated JMY derivatives tested for binding to STRAP
[10] = molecular target: T3, JMY683-983 (pCMV-HA-JMY683-983, in vitro translated) (UniProt Q9QXM1 683-983); assay: as above
T3 sequence (looked up): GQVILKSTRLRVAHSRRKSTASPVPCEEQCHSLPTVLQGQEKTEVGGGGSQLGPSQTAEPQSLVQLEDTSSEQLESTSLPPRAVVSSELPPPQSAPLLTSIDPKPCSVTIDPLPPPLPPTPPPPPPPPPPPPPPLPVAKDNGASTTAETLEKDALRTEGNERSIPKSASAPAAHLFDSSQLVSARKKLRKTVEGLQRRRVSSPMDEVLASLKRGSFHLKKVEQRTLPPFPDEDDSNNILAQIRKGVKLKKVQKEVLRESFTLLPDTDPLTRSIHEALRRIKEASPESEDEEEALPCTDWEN

[11] = molecular target: T1, Flag-tagged full-length p300 …; assay: biochemical binding assay with a panel of p300 derivatives

T1 sequence (Q09472 2-2414 limits assumed): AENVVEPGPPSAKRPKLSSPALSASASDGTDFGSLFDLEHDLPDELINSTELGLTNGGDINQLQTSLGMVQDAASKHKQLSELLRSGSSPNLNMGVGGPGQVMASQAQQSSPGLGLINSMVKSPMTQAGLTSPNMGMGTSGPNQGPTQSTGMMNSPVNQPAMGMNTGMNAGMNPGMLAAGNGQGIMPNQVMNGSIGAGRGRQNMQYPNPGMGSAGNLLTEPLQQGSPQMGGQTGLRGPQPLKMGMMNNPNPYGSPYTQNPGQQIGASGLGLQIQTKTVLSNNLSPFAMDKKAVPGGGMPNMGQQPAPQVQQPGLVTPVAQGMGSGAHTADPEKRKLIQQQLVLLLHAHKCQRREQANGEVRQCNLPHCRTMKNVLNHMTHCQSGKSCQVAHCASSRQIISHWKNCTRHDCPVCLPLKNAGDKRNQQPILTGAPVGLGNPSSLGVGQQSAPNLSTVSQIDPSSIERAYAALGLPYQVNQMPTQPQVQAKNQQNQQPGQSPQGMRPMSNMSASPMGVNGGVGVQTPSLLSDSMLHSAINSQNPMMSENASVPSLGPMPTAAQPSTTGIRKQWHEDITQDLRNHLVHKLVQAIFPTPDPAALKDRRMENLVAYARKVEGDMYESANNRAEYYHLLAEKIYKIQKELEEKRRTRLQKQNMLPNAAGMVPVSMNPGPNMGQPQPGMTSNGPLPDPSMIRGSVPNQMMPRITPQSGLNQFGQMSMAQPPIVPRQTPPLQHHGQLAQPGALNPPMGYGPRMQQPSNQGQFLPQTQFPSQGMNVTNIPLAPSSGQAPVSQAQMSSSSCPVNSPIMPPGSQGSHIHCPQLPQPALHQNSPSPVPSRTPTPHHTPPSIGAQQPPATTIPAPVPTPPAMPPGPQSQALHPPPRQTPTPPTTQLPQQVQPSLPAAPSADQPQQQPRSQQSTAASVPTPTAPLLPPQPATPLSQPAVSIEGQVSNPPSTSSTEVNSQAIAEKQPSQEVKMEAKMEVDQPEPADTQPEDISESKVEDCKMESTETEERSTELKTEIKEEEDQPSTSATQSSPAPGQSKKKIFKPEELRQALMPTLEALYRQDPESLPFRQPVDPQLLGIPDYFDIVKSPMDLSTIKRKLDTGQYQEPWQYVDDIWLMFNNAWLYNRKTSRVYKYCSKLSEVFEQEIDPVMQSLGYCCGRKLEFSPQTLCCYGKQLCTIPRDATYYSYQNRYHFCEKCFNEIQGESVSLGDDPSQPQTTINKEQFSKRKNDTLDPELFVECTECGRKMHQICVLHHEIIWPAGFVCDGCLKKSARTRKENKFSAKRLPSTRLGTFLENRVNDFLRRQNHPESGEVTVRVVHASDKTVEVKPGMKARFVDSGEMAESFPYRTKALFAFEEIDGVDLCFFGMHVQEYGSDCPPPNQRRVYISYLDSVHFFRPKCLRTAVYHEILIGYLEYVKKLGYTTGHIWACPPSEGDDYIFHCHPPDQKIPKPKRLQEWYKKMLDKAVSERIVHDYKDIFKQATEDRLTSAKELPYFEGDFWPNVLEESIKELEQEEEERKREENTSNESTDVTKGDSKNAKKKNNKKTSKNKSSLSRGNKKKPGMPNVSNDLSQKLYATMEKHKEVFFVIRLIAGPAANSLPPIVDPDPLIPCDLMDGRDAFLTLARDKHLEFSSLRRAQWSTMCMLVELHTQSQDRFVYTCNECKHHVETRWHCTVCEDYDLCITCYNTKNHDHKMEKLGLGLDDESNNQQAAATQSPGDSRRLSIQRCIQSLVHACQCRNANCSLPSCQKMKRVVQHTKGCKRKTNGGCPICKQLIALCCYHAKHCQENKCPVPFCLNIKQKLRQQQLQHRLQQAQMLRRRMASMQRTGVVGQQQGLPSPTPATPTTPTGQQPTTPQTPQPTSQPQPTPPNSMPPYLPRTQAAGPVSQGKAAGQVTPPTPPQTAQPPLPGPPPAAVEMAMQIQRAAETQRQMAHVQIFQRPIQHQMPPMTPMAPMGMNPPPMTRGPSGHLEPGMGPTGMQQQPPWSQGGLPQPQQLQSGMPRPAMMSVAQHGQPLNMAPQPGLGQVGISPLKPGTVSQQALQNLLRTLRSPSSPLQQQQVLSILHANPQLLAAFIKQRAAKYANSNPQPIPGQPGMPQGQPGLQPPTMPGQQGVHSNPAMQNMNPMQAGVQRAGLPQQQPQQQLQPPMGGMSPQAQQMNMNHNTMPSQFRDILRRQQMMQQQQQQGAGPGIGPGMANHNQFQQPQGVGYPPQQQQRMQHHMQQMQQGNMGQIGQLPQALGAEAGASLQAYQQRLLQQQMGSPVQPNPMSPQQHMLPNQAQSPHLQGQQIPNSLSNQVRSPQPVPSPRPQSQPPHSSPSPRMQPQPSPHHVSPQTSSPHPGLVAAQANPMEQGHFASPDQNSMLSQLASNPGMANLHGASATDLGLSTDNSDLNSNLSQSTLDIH
Chain of p300 (pCMV-p300, expressed in transfected cells) (Q09472 whole entry): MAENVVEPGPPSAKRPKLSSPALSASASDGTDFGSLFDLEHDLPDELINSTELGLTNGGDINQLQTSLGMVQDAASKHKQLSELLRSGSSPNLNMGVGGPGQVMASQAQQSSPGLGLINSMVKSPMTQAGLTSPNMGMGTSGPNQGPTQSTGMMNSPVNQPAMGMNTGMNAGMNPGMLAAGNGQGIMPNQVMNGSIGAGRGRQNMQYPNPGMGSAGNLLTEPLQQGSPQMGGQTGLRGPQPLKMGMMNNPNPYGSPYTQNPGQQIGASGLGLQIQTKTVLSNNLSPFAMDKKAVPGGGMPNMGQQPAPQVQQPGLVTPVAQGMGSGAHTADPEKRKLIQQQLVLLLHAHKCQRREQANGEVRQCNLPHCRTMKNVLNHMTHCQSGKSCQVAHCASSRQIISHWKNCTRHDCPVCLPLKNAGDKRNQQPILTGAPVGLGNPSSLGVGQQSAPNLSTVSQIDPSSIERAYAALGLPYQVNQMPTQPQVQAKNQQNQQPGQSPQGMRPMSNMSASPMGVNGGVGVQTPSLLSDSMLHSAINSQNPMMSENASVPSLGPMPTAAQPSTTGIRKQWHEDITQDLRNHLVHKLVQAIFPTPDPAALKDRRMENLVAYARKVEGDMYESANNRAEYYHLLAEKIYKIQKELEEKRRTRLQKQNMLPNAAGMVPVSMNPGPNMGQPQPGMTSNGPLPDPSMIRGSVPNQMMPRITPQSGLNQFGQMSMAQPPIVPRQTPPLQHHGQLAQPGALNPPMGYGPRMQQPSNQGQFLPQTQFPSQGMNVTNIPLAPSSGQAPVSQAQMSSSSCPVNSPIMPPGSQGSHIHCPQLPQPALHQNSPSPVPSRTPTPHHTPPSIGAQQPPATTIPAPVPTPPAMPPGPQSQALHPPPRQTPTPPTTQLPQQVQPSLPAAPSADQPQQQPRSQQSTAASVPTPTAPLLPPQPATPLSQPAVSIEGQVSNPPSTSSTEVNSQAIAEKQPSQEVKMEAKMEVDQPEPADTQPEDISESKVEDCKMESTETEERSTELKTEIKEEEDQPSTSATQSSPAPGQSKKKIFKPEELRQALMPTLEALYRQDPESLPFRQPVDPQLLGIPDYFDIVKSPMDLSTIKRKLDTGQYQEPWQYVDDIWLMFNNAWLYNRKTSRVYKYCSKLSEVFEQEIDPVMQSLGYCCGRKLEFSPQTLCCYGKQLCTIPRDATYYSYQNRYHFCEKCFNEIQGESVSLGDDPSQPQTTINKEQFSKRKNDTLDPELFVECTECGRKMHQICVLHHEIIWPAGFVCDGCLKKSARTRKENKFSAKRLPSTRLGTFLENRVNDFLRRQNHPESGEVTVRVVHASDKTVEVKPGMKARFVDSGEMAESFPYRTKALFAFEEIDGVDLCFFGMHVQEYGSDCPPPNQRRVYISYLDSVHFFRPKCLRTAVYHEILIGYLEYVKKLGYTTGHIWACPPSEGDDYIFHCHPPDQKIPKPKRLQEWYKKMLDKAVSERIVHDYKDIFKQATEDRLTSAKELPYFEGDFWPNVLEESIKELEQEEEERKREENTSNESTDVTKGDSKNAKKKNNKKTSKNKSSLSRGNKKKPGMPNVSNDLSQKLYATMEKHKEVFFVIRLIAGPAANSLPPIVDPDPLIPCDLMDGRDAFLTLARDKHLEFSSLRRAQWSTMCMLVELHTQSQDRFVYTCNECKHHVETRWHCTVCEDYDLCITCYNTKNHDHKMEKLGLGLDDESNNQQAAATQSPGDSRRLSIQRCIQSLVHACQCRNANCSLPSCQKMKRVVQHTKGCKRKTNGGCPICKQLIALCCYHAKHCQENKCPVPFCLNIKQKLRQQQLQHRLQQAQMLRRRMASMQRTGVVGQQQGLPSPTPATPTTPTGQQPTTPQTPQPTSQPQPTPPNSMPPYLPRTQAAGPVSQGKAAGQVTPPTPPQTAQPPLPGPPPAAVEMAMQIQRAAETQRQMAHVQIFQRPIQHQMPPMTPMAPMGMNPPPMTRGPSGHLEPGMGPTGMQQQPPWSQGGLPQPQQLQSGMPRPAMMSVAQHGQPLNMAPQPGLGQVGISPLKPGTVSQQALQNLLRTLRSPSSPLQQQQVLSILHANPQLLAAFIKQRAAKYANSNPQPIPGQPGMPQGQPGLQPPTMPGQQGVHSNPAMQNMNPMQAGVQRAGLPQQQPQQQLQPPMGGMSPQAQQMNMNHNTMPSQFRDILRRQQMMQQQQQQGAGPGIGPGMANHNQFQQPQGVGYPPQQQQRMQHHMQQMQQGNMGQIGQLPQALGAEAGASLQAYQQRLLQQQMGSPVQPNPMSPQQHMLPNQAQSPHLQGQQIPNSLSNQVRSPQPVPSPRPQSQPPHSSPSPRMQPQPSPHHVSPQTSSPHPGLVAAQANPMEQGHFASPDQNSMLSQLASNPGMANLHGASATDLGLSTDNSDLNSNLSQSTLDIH

B1: STRAP8-205 (other, not shown: small tags and cut ends)
chain: EAKHVLQKLQGLVDRLYCFRDSYFETHSVEDAGRKQQDVQEEMEKTLQQMEEVLGSAQVEAQALMLKGKALNVTPDYSPEAEVLLSKAVKLEPELVEAWNQLGEVYWKKGDVTSAHTCFSGALTHCKNKVSLQNLSMVLRQLQTDSGDEHSRHVMDSVRQAKLAVQMDVLDGRSWYILGNAYLSLYFNTGQNPKISQQ
B1: no binding [1]; binds [2].

B2: STRAP123-205 (other, not shown: small tags and cut ends)
chain: HTCFSGALTHCKNKVSLQNLSMVLRQLQTDSGDEHSRHVMDSVRQAKLAVQMDVLDGRSWYILGNAYLSLYFNTGQNPKISQQ
notes: In vitro translated
B2: binds [3].

B3: JMY (pCMV-JMY, expressed in transfected cells) (other, UniProt Q9QXM1 1-983, looked up)
chain: MSFALEETLESDWVAVRPHVFDEREKHKFVFIVAWNEIEGKFAITCHNRTAQRQRSGSREQAGTPASDGSRGPGSPAARGRSEAAASATAALRSPGPRKSQAWAEGGSPRSARSLKGDPPRGPAGRGPESPLRSPARAKASPLRRSAESRDAIASATPVPPAPPVPPVSSVRVVSASGAVSEEIEVLEMVREDEAPQPLPDSEQPPSAAELESSAEECSWAGLFSFQDLRAVHQQLCSVNSQLEPCLPVFPEEPSGMWTVLFGGAPEMTEQEIDALCYQLQVYLGHGLDTCGWKILSQVLFTETDDPEEYYESLSELRQKGYEEVLQRARRRIQELLDKHKTIESMVELLDLYQMEDEAYSSLAEATTELYQYLLQPFRDMRELAMLRRQQIKISMENDYLGPRRIESLQKEDADWQRKAHMAVLSIQDLTVKYFEITAKAQKAVYDRMRADQKKFGKASWAAAAERMEKLQYAVSKETLQMMRAKEICLEQKKHALKEEMQSLQGGTEAIARLDQLESDYYDLQLQLYEVQFEILKCEELLLTAQLESIKRLISEKRDEVVYYDTYESMEAMLEKEEMAASVHAQREELQKLQQKARQLEARRGRVSAKKAYLRNKKEICIAKHHEKFQQRFQSEDEYRAHHTIQIKRDKLHDEEERKSAWVSQERQRTLDRLRTFKQRYPGQVILKSTRLRVAHSRRKSTASPVPCEEQCHSLPTVLQGQEKTEVGGGGSQLGPSQTAEPQSLVQLEDTSSEQLESTSLPPRAVVSSELPPPQSAPLLTSIDPKPCSVTIDPLPPPLPPTPPPPPPPPPPPPPPLPVAKDNGASTTAETLEKDALRTEGNERSIPKSASAPAAHLFDSSQLVSARKKLRKTVEGLQRRRVSSPMDEVLASLKRGSFHLKKVEQRTLPPFPDEDDSNNILAQIRKGVKLKKVQKEVLRESFTLLPDTDPLTRSIHEALRRIKEASPESEDEEEALPCTDWEN
notes: also called JMY co-factor; wild-type JMY
In the case of B3, the “fold increase in the level of co-immunoprecipitated JMY with p300” value [4] is reported as ~10 fold.

B4: STRAP206-438 (other, not shown: small tags and cut ends)
chain: ALSAYAQAEKVDRKASSNPDLHLNRATLHKYEESYGEALEGFSQAAALDPAWPEPQQREQQLLEFLSRLTSLLESKGKTKPKKLQSMLGSLRPAHLGPCGDGRYQSASGQKMTLELKPLSTLQPGVNSGTVVLGKVVFSLTTEEKVPFTFGLVDSDGPCYAVMVYNVVQSWGVLIGDSVAIPEPNLRHHQIRHKGKDYSFSSVRVETPLLLVVNGKPQNSSSQASATVASRPQ
notes: In vitro translated
B4: binds [3]; binds [5].

B5: STRAP8-123 (other)
chain: EAKHVLQKLQGLVDRLYCFRDSYFETHSVEDAGRKQQDVQEEMEKTLQQMEEVLGSAQVEAQALMLKGKALNVTPDYSPEAEVLLSKAVKLEPELVEAWNQLGEVYWKKGDVTSAH
notes: A pET form also exists; not shown: HA tag (pCMV-HA, in vitro translated) or His tag (pET28C, purified)
B5: no binding [6]; binds [7].

B6: STRAP (construct not stated for the experiment) (other)
chain: EAKHVLQKLQGLVDRLYCFRDSYFETHSVEDAGRKQQDVQEEMEKTLQQMEEVLGSAQVEAQALMLKGKALNVTPDYSPEAEVLLSKAVKLEPELVEAWNQLGEVYWKKGDVTSAHTCFSGALTHCKNKVSLQNLSMVLRQLQTDSGDEHSRHVMDSVRQAKLAVQMDVLDGRSWYILGNAYLSLYFNTGQNPKISQQALSAYAQAEKVDRKASSNPDLHLNRATLHKYEESYGEALEGFSQAAALDPAWPEPQQREQQLLEFLSRLTSLLESKGKTKPKKLQSMLGSLRPAHLGPCGDGRYQSASGQKMTLELKPLSTLQPGVNSGTVVLGKVVFSLTTEEKVPFTFGLVDSDGPCYAVMVYNVVQSWGVLIGDSVAIPEPNLRHHQIRHKGKDYSFSSVRVETPLLLVVNGKPQNSSSQASATVASRPQ
notes: also called 60,000 molecular weight STRAP polypeptide
B6: binds [8]; binds [9]; binds [10]. B6: binds [11].

Reference: US7348407 (dated 2008)
